According to PMC6585436 (Chemistry & biology, 2015):

Molecular target: MtMscL CΔ48 C-GFP (pet15b-MtMscL CΔ(103–151)-S-TEV-GFP-6xHis) (Mycobacterium tuberculosis) (UniProt A5U127)
Assay: native MS

## MtMscL CΔ48 C-GFP (pet15b-MtMscL CΔ(103–151)-S-TEV-GFP-6xHis) (from UniProt A5U127 1-102) (domain or fragment)
  stoichiometry N: 5
